T1: lecithin:cholesterol acyltransferase (LCAT), purified from human plasma (human, UniProt P04180 25-440)
T1 sequence (looked up): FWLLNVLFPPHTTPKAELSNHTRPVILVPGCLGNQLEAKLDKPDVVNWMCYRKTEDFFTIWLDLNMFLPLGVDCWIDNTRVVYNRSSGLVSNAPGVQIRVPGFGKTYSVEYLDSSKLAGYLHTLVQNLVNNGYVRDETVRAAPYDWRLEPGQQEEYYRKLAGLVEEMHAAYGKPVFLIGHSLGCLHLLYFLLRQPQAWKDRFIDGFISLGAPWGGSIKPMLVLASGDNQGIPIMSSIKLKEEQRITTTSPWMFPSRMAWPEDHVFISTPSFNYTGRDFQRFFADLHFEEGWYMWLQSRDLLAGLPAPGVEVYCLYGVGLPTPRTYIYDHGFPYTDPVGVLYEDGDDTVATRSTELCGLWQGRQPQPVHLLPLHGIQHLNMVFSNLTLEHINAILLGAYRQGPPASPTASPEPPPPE


Biological target: T1, lecithin:cholesterol acyltransferase …
Experiment: cell-based or functional assay

Row | ACTIVITY (%) LCAT [%] | Binder
1 | 8 | DWLKAFYDKVFEKFKEFF [peptide 241]
2 | 7 | EWLEAFYKKVLEKLKELF [peptide 242]
3 | 5 | DWFKAFYDKFFEKFKEFF [peptide 243]
4 | 4 | EWLKAEYEKVEEKLKELF [peptide 245]
5 | 5 | EWLKAFYEKVLEKLKELF [peptide 244]
6 | 3 | EWLKAFYKKVLEKLKELF [peptide 247]
7 | 4 | EWLKAEYEKVLEKLKELF [peptide 246]
8 | 11 | DWFKAFYDKVFEKFKEFF [peptide 237]
